Experiment [1] has as its target CP-MVP-Z recombinant vaults.
Experiment [2] concerns the target CP-MVP-Z recombinant vaults. The experiment can be described thus: ELISA. (ELISA stands for enzyme-linked immunosorbent assay.)

By EC50 is commonly meant the concentration needed to bring the measured effect to its halfway point.

For the substance mouse IgG (Sigma) (antibody), the other in experiment [1] came out at 52%.
Regarding rabbit IgG (Sigma) (antibody), the EC50 in experiment [2] is 0.25 nM. Further, the other in experiment [1] came out at 92%.

These data come from paper PMC2641028.
